test: soluble on expression in E. coli; label from the status in PepcDB or PDB records

| Sequence | soluble on expression in E. coli |
| --- | --- |
| MSTASGITMASMSTYAILGCGSVGHAVAEELVEEGKDVLILDADEGRVEALRDQDLNAQQADICETDVAQTVADRDVVLIMSPDVNANAEAVRNIRESGGEQFIVARADDPVSADDLTELGADVVINPSAVIADSALRALETGELEYKASQLGDVIDGTEERMAILIHRSPDPDSIASAAALRAIAASRDVDADIIYEGEIGHQENRAFVNLLGIELTSNEDVNLDEYDTFALVDVAKGGEPAVESVDIVIDHYEHEHELEHDAAFSDIRPNISATSTILTKYIQELDLNLDQSVATALLYGIRAETLDFKRDTTPADLTAAAYLYPFADHDTLEQVESPSMSPETLDVLAEAIRNREVQGSHLVSNAGFIRDRDALAQAAQHLLNLEGITTTAVFAIADDTIYLAARSKDIRMNIGKVLSDAFGGMGETAGHSTDASVEIPLGIFTGLDTSDDNRDTLLELTEEAVKRKLFEAMGVDSSSSESSNGN | not soluble |
| MSEPVKLRAHTQAHCKDCSLAPLCLPLSLNTDDMDSLDQIVKRGRPLKKGEFLFRQGDTFESVYAVRSGALKTFNISDNGEEQLTGFHLPSELVGLSGMDAEAYPVSAQALETTSVCEIPFERLDELSVQLPQLRRQLMRVMSREIRDDQQMMLLLSKKTADERIATFLINLSARFRARGFSANQFRLSMSRSEIGNHLGLAVETVSRVFTRFQQNQLVSAEGKEIHILAPIELCALAGGAMQS | soluble |
| MDDPASYELDPSIAQRVKFNSAGLVPAVVQSTDGEVLMLAWMDAHALAYTIATRKGTYFSRSRNEYWIKGLTSGHTQQVTGLQLDCDGDTVLMTVVQQGGACHTGDRTCFDADVII | not soluble |
| MKKVTAMLFSMAVGLNAVSMAAKAKASEEQETDVLLIGGGIMSATLGTYLRELEPEWSMTMVERLEGVAQESSNGWNNAGTGHSALMELNYTPQNADGSISIEKAVAINEAFQISRQFWAHQVERGVLRTPRSFINTVPHMSFVWGEDNVNFLRARYAALQQSSLFRGMRYSEDHAQIKEWAPLVMEGRDPQQKVAATRTEIGTDVNYGEITRQLIASLQKKSNFSLQLSSEVRALKRNDDNTWTVTVADLKNGTAQNIRAKFVFIGAGGAALKLLQESGIPEAKDYAGFPVGGQFLVSENPDVVNHHLAKVYGKASVGAPPMSVPHIDTRVLDGKRVVLFGPFATFSTKFLKNGSLWDLMSSTTTSNVMPMMHVGLDNFDLVKYLVSQVMLSEEDRFEALKEYYPQAKKEDWRLWQAGQRVQIIKRDAEKGGVLRLGTEVVSDQQGTIAALLGASPGASTAAPIMLNLLEKVFGDRVSSPQWQATLKAIVPSYGRKLNGDVAATERELQYTSEVLGLNYDKPQAADSTPKPQLKPQPVQKEVADIAL | not soluble |
| MEDEDVPVCWICNEELGNERFRACGCTGELENVHRSCLSTWLTISRNTACQICGVVYNTR | soluble |
| MGSDKIHHHHHHMRLPLNQRVAILLHEGTTGTIGKTGLALLRYSEAPIVAVIDRNCAGQSLREITGIYRYVPIVKSVEAALEYKPQVLVIGIAPKGGGIPDDYWIELKTALQAGMSLVNGLHTPLANIPDLNALLQPGQLIWDVRKEPANLDVASGAARTLPCRRVLTVGTDMAIGKMSTSLELHWAAKLRGWRSKFLATGQTGVMLEGDGVALDAVRVDFAAGAVEQMVMRYGKNYDILHIEGQGSLLHPGSTATLPLIRGSQPTQLVLVHRAGQTHNGNNPHVPIPPLPEVIRLYETVASGGGAFGTVPVVGIALNTAHLDEYAAKEAIAHTIAETGLPCTDVVRFGADVLLDAVMQN | not soluble |
| MEMLSGAEMVVRSLIDQGVKQVFGYPGGAVLDIYDALHTVGGIDHVLVRHEQAAVHMADGLARATGEVGVVLVTSGPGATNAITGIATAYMDSIPLVVLSGQVATSLIGYDAFQECDMVGISRPVVKHSFLVKQTEDIPQVLKKAFWLAASGRPGPVVVDLPKDILNPANKLPYVWPESVSMRSYNPTTTGHKGQIKRALQTLVAAKKPVVYVGGGAITAGCHQQLKETVEALNLPVVCSLMGLGAFPATHRQALGMLGMHGTYEANMTMHNADVIFAVGVRFDDRTTNNLAKYCPNATVLHIDIDPTSISKTVTADIPIVGDARQVLEQMLELLSQESAHQPLDEIRDWWQQIEQWRARQCLKYDTHSEKIKPQAVIETLWRLTKGDAYVTSDVGQHQMFAALYYPFDKPRRWINSGGLGTMGFGLPAALGVKMALPEETVVCVTGDGSIQMNIQELSTALQYELPVLVVNLNNRYLGMVKQWQDMIYSGRHSQSYMQSLPDFVRLAEAYGHVGIQISHPHELESKLSEALEQVRNNRLVFVDVTVDGSEHVYPMQIRGGGMDEMWLSKTERT | soluble |
| MQIKDEILSLLKRGKNLLAFSYGSDSSVLFYLLMQEKIDFDLVMINYKTRKNSDLEELKAKELALKFHKKIFIKHAPKFQSNFEKKARDFRYDFFEKICLEQGYDHLILAHHLNDQFEWFLMQLSRGAGLAEILGMQECEKRSNYTLLRPLLFISKDEISSFLKEKDIFYFHDES | not soluble |
| MKVGYLGPAATFTHLAVSSCFQNGAEHVAYRTIPECIDAAVAGEVDFAFVPLENALEGSVNLTIDYLIHEQPLPIVGEMTLPIHQHLLVHPSRENAWKELDKIYSHSHAIAQCHKFLHRHFPSVPYEYANSTGAAAKFVSDHPELNIGVIANDMAASTYELKIVKRDIQDYRDNHTRFVILSPDENISFEVNSKLSSRPKTTLMVMLPQDDQSGALHRVLSAFSWRNLNLSKIESRPTKTGLGHYFFIIDIEKAFDDVLIPGAMQELEALGCKVRLLGAYQSYQLMAGDPLEHHHHHH | not soluble |
| MRGSHHHHHHGIQMVSIAINGFGRIGRLVLRIALERKNIDVVAINDPFISVDYAAYMFKYDSTHGKYKGEVSHDGSNLIINGKKVAVFQEKDPATLPWGKLGVDIAVDSTGVFKELDSAQKHIDAGAKKVVITAPSKTAPMFVVGVNEDKYNGEKIVSNASCTTNCLAPIAKIINDEFGIEEGLMTTVHSITATQKTVDGPSHKDWRGGRTASGNIIPSSTGAAKAVGKVLPELQGKLTGMAFRVPTTDVSVVDLTVKLVKAATYDEIKAAVKKVSEGKLKDVVGYTEDAVVSSDFLGDTHSTIFDAAAGIQLSPKFVKLVAWYDNEYGYSTRVVDLVEHVA | soluble |
| MGSDKIHHHHHHMQAAWLLGALVVPQLLSFGHGARGPGREWEGGWGGALEEERERESQMLKNLQEALGLPTGVGNEDNLAENPEDKEVWETTETQGEEEEEEITTAPSSSPNPFPSPSPTPEDTVTYILGRLASLDAGLHQLHVRLHVLDTRVVELTQGLRQLRDAASDTRDSVQALKEVQDRAEQEHGRLEGCLKGLRLGHKCFLLSRDFETQAAAQARCKARGGSLAQPADRQQMDALSRYLRAALAPYNWPVWLGVHDRRSEGLYLFENGQRVSFFAWHRAFSLESGAQPSAATHPLSPDQPNGGVLENCVAQASDDGSWWDHDCERRLYFVCEFPF | not soluble |
| MGKIQARIPDEVQEVASAVIKSTGLTVSDAVRMFMTRIARDRALPLDLFQPNLETLQAIEDAEMGRVERTSLDGLRAMIRDDKAEVCKSAK | not soluble |
| MRYSFVIQWDFETVYTGVNSTTNLAFSVKAMTTNFANLQELQDSLVLRGQNLTTQLFWKPTVKRLVLGNNNDLTTVAKAAVGDNLFTTQANLTKSVLDQTVLKEAESRFEATVLKPFIEARQKALAEHQAHQKVLEEQRQKQLEELKQKQKEAE | soluble |
| MDSFWFVQQWPPAVCSFQKSGSCPGSGLRTFTIHGLWPQQSGTSLTNCPGSPFDITKISHLQSQLNTLWPSVLRANNQQFWSHEWTKHGTCSESTFNQAAYFKLAVDMRNNYDIIGALRPHAAGPNGRTKSRQAIKGFLKAKFGKFPGLRCRTDPQTKVSYLVEVVACFAQDGSTLIDCTRDTCGANFIF | soluble |
| GSHMSYADSSRNAVLTNGGRTLRAECRNADGNWVTSELDLDTIIGNNDGHFQWGGQNFTETAEDIRFHPKEGAAEQPILRARLRDCNGEFHDRDVNLNRIQNVNGRLVFQ | soluble |
| MGSDKIHHHHHHMNDYKALRTFLLAAEKRNFAQVARELDMTPAAVTRAIAALEAELGVQLFVRTTRQVSLTTDGAIFAAQLQPAVKTIEDARREVMNAHKADEGRLRISAPTWFGKAVLPPILSAFKERYPKMSFEISLSDGLVNIVDDDYDLAIRISSQPSDKFTIWRKIRVVPRILVAAPGSRFVDMQHPNELTPDDCLAYSGDSRRENWVLSDGGSSITISAGRAFSANNGEVLADIAADGAGVAMLPGFHIFEHLRTGRLVHVFKGWAPPDLWLTLYYPPYQALPPRIASFSKFFEEQVPAHMVMLD | not soluble |

From the DeepSol protein solubility set
